B1: SMG5 (parent)
chain: FVSIAQSEQESLLQQAQAQFRMAQ
B2: TRIM39 (parent)
chain: ERDFPCPVCRKTSRYRSLRPNRQL

Variants of: B1
Experiment: protein stability index of a GFP-peptide fusion (GPS, HEK-293T) (PSI 1-6); higher = more stable
Details: c terminus: a fixed tail appended
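Note: lentivirally expressed fusions sorted by FACS into six bins by GFP to DsRed ratio, PSI derived from sequencing read proportions per bin multiplied by bin number.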

Protein stability index, by site and new letter:
A23: Q 2.29 | H 2.85 | T 2.33 | G 2.46 | K 2.12 | M 2.17 | S 2.31 | E 2.85 | R 2.26 | W 2.58 | V 2.02 | L 2.4 | Y 2.16 | D 2.21 | P 1.91 | N 2.12 | C 2.1 | F 1.75 | I 2.22
Q24: R 2.57 | C 1.94 | E 2.74 | D 2.12 | V 1.63 | T 2.08 | M 1.88 | I 2.11 | F 2.48 | S 2.65 | H 1.92 | K 2.65 | Y 2.1 | W 2.76 | A 2.15 | L 2.4 | N 2.24 | P 2.38 | G 1.71
M22: D 2.68 | V 2.61 | L 2.01 | G 2.3 | N 1.94 | P 2.25 | C 3.04 | R 2.7 | T 2.5 | Q 2.05 | I 2.14 | A 2.43 | K 2.13 | S 2.92 | F 2.2 | W 2.4 | E 2.57 | Y 2.13 | H 2.26
R21: M 1.89 | A 2.27 | F 1.92 | H 2.4 | E 2.64 | Y 2.63 | I 1.76 | N 1.94 | S 1.82 | K 2.59 | V 2.56 | L 2.43 | D 2.48 | C 1.44 | G 2.08 | T 2.32 | W 3.6 | Q 2.6 | P 2.17
F20: Y 2.49 | D 3.06 | L 2.08 | T 3.17 | K 2.59 | G 3.13 | R 2.32 | M 2.29 | A 2.44 | E 3.12 | V 2.37 | N 2.5 | I 2.48 | W 1.82 | C 2.22 | S 2.57 | Q 2.5 | P 2.75 | H 3.04
Q19: L 2.47 | P 1.81 | M 2.09 | E 2.82 | C 1.93 | V 2.13 | F 1.35 | N 1.97 | T 1.98 | I 2.33 | K 1.96 | R 3.17 | S 1.81 | G 2.08 | A 1.87 | Y 1.08 | H 1.66 | D 2.27

Variants of: B2
Experiment: as above
Details: c terminus: a fixed tail appended

Protein stability index: each site, then its substitutions
E1: L 2.34 | N 2.01 | S 2.25 | C 2.2 | T 2.71 | M 2.16 | F 2.14 | Y 1.66 | P 2.93 | I 2.19 | G 1.83 | Q 2.06 | W 2.4 | R 2.71 | K 1.77 | A 2.16 | H 2.03 | V 2.06 | D 2.4
P5: H 3.7 | A 1.74 | I 2.91 | K 2.72 | Y 2 | F 1.81 | V 2.29 | S 2.04 | W 1.87 | T 2.93 | M 2.26 | Q 1.18 | E 1.76 | G 1.67 | N 1.84 | C 2.9 | L 3 | D 2.49
P7: G 2.38 | Q 1.96 | H 3.7 | R 2.88 | Y 2.09 | A 2.2 | T 1.85 | I 2.75 | S 2.22 | K 2.6 | F 1.8 | M 2.17 | D 2.43 | N 2.19 | C 1.94 | W 1.96 | L 2.37

From the supplement of paper PMC10567573
